The chains are these.
B1: PiggyBac transposable element-derived protein 1 (Homo sapiens), Q96JS3 (parent)
chain: MYEALPGPAPENEDGLVKVKEEDPTWEQVCNSQEGSSHTQEICRLRFRHFCYQEAHGPQEALAQLRELCHQWLRPEMHTKEQIMELLVLEQFLTILPKELQPCVKTYPLESGEEAVTVLENLETGSGDTGQQASVYIQGQDMHPMVAEYQGVSLECQSLQLLPGITTLKCEPPQRPQGNPQEVSGPVPHGSAHLQEKNPRDKAVVPVFNPVRSQTLVKTEEETAQAVAAEKWSHLSLTRRNLCGNSAQETVMSLSPMTEEIVTKDRLFKAKQETSEEMEQSGEASGKPNRECAPQIPCSTPIATERTVAHLNTLKDRHPGDLWARMHISSLEYAAGDITRKGRKKDKARVSELLQGLSFSGDSDVEKDNEPEIQPAQKKLKVSCFPEKSWTKRDIKPNFPSWSALDSGLLNLKSEKLNPVELFELFFDDETFNLIVNETNNYASQKNVSLEVTVQEMRCVFGVLLLSGFMRHPRREMYWEVSDTDQNLVRDAIRRDRFELIFSNLHFADNGHLDQKDKFTKLRPLIKQMNKNFLLYAPLEEYYCFDKSMCECFDSDQFLNGKPIRIGYKIWCGTTTQGYLVWFEPYQEESTMKVDEDPDLGLGGNLVMNFADVLLERGQYPYHLCFDSFFTSVKLLSALKKKGVRATGTIRENRTEKCPLMNVEHMKKMKRGYFDFRIEENNEIILCRWYGDGIISLCSNAVGIEPVNEVSCCDADNEEIPQISQPSIVKVYDECKEGVAKMDQIISKYRVRIRSKKWYSILVSYMIDVAMNNAWQLHRACNPGASLDPLDFRRFVAHFYLEHNAHLSD
partner: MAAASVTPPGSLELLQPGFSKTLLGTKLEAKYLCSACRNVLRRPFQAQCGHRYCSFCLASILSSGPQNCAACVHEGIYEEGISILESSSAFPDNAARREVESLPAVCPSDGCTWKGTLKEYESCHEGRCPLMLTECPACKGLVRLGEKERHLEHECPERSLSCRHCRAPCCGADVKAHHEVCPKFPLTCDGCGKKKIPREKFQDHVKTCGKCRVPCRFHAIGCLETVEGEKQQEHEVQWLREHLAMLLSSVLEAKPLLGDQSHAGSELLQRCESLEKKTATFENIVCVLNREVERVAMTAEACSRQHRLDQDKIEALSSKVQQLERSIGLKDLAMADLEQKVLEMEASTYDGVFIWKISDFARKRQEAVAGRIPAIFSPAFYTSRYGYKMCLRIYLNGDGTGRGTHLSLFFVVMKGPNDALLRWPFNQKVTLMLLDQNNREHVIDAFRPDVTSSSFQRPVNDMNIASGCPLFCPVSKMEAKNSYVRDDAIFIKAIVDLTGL
B2: X-linked retinitis pigmentosa GTPase regulator (Homo sapiens), Q92834 (parent)
chain: MREPEELMPDSGAVFTFGKSKFAENNPGKFWFKNDVPVHLSCGDEHSAVVTGNNKLYMFGSNNWGQLGLGSKSAISKPTCVKALKPEKVKLAACGRNHTLVSTEGGNVYATGGNNEGQLGLGDTEERNTFHVISFFTSEHKIKQLSAGSNTSAALTEDGRLFMWGDNSEGQIGLKNVSNVCVPQQVTIGKPVSWISCGYYHSAFVTTDGELYVFGEPENGKLGLPNQLLGNHRTPQLVSEIPEKVIQVACGGEHTVVLTENAVYTFGLGQFGQLGLGTFLFETSEPKVIENIRDQTISYISCGENHTALITDIGLMYTFGDGRHGKLGLGLENFTNHFIPTLCSNFLRFIVKLVACGGCHMVVFAAPHRGVAKEIEFDEINDTCLSVATFLPYSSLTSGNVLQRTLSARMRRRERERSPDSFSMRRTLPPIEGTLGLSACFLPNSVFPRCSERNLQESVLSEQDLMQPEEPDYLLDEMTKEAEIDNSSTVESLGETTDILNMTHIMSLNSNEKSLKLSPVQKQKKQQTIGELTQDTALTENDDSDEYEEMSEMKEGKACKQHVSQGIFMTQPATTIEAFSDEEVGNDTGQVGPQADTDGEGLQKEVYRHENNNGVDQLDAKEIEKESDGGHSQKESEAEEIDSEKETKLAEIAGMKDLREREKSTKKMSPFFGNLPDRGMNTESEENKDFVKKRESCKQDVIFDSERESVEKPDSYMEGASESQQGIADGFQQPEAIEFSSGEKEDDEVETDQNIRYGRKLIEQGNEKETKPIISKSMAKYDFKCDRLSEIPEEKEGAEDSKGNGIEEQEVEANEENVKVHGGRKEKTEILSDDLTDKAEDHEFSKTEELKLEDVDEEINAENVESKKKTVGDDESVPTGYHSKTEGAERTNDDSSAETIEKKEKANLEERAICEYNENPKGYMLDDADSSSLEILENSETTPSKDMKKTKKIFLFKRVPSINQKIVKNNNEPLPEIKSIGDQIILKSDNKDADQNHMSQNHQNIPPTNTERRSKSCTIL
partner: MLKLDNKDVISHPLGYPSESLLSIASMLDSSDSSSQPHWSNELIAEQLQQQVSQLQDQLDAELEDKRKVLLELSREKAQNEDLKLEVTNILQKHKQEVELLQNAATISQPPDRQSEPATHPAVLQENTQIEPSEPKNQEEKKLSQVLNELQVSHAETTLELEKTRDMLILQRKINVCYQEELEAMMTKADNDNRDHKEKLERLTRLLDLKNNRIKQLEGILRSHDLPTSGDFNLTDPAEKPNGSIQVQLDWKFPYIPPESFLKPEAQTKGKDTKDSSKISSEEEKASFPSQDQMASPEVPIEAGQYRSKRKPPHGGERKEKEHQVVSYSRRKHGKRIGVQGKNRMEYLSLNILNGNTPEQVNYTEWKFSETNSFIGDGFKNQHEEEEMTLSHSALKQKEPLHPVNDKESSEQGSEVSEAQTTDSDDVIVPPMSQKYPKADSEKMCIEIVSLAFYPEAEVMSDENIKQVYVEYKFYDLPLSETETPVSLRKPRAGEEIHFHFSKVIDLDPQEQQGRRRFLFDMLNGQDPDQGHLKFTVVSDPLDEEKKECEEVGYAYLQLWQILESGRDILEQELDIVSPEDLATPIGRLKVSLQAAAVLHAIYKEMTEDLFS
B3: Prelamin-A/C (Homo sapiens), P02545-2 (parent)
chain: METPSQRRATRSGAQASSTPLSPTRITRLQEKEDLQELNDRLAVYIDRVRSLETENAGLRLRITESEEVVSREVSGIKAAYEAELGDARKTLDSVAKERARLQLELSKVREEFKELKARNTKKEGDLIAAQARLKDLEALLNSKEAALSTALSEKRTLEGELHDLRGQVAKLEAALGEAKKQLQDEMLRRVDAENRLQTMKEELDFQKNIYSEELRETKRRHETRLVEIDNGKQREFESRLADALQELRAQHEDQVEQYKKELEKTYSAKLDNARQSAERNSNLVGAAHEELQQSRIRIDSLSAQLSQLQKQLAAKEAKLRDLEDSLARERDTSRRLLAEKEREMAEMRARMQQQLDEYQELLDIKLALDMEIHAYRKLLEGEEERLRLSPSPTSQRSRGRASSHSSQTQGGGSVTKKRKLESTESRSSFSQHARTSGRVAVEEVDEEGKFVRLRNKSNEDQSMGNWQIKRQNGDDPLLTYRFPPKFTLKAGQVVTIWAAGAGATHSPPTDLVWKAQNTWGCGNSLRTALINSTGEEVAMRKLVRSVTVVEDDEDEDGDDLLHHHHVSGSRR
B4: Neutrophil cytosol factor 1 (Homo sapiens), P14598 (parent)
chain: MGDTFIRHIALLGFEKRFVPSQHYVYMFLVKWQDLSEKVVYRRFTEIYEFHKTLKEMFPIEAGAINPENRIIPHLPAPKWFDGQRAAENRQGTLTEYCSTLMSLPTKISRCPHLLDFFKVRPDDLKLPTDNQTKKPETYLMPKDGKSTATDITGPIILQTYRAIANYEKTSGSEMALSTGDVVEVVEKSESGWWFCQMKAKRGWIPASFLEPLDSPDETEDPEPNYAGEPYVAIKAYTAVEGDEVSLLEGEAVEVIHKLLDGWWVIRKDDVTGYFPSMYLQKSGQDVSQAQRQIKRGAPPRRSSIRNAHSIHQRSRKRLSQDAYRRNSVRFLQQRRRQARPGPQSPGSPLEEERQTQRSKPQPAVPPRPSADLILNRCSESTKRKLASAV
B5: Transmembrane protein 43 (Homo sapiens), Q9BTV4 (parent)
chain: MAANYSSTSTRREHVKVKTSSQPGFLERLSETSGGMFVGLMAFLLSFYLIFTNEGRALKTATSLAEGLSLVVSPDSIHSVAPENEGRLVHIIGALRTSKLLSDPNYGVHLPAVKLRRHVEMYQWVETEESREYTEDGQVKKETRYSYNTEWRSEIINSKNFDREIGHKNPSAMAVESFMATAPFVQIGRFFLSSGLIDKVDNFKSLSLSKLEDPHVDIIRRGDFFYHSENPKYPEVGDLRVSFSYAGLSGDDPDLGPAHVVTVIARQRGDQLVPFSTKSGDTLLLLHHGDFSAEEVFHRELRSNSMKTWGLRAAGWMAMFMGLNLMTRILYTLVDWFPVFRDLVNIGLKAFAFCVATSLTLLTVAAGWLFYRPLWALLIAGLALVPILVARTRVPAKKLE
partner: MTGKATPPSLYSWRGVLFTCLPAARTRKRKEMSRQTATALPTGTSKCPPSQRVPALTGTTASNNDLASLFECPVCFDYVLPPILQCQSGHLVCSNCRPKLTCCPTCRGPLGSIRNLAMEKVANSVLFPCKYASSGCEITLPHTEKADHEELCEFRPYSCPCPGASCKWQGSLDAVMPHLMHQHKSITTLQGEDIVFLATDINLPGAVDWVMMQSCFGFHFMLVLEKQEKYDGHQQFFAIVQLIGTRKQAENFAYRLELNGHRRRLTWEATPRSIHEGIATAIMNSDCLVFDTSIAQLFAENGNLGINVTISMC
B6: EF-hand domain-containing protein 1 (Homo sapiens), Q5JVL4 (parent)
chain: MVSNPVHGLPFLPGTSFKDSTKTAFHRSQTLSYRNGYAIVRRPTVGIGGDRLQFNQLSQAELDELASKAPVLTYGQPKQAPPADFIPAHVAFDKKVLKFDAYFQEDVPMSTEEQYRIRQVNIYYYLEDDSMSVIEPVVENSGILQGKLIKRQRLAKNDRGDHYHWKDLNRGINITIYGKTFRVVDCDQFTQVFLESQGIELNPPEKMALDPYTELRKQPLRKYVTPSDFDQLKQFLTFDKQVLRFYAIWDDTDSMYGECRTYIIHYYLMDDTVEIREVHERNDGRDPFPLLMNRQRVPKVLVENAKNFPQCVLEISDQEVLEWYTAKDFIVGKSLTILGRTFFIYDCDPFTRRYYKEKFGITDLPRIDVSKREPPPVKQELPPYNGFGLVEDSAQNCFALIPKAPKKDVIKMLVNDNKVLRYLAVLESPIPEDKDRRFVFSYFLATDMISIFEPPVRNSGIIGGKYLGRTKVVKPYSTVDNPVYYGPSDFFIGAVIEVFGHRFIILDTDEYVLKYMESNAAQYSPEALASIQNHVRKREAPAPEAESKQTEKDPGVQELEALIDTIQKQLKDHSCKDNIREAFQIYDKEASGYVDRDMFFKICESLNVPVDDSLVKELIRMCSHGEGKINYYNFVRAFSN
partner: B1 partner

Variants of B1 are the subject of the first assay. The note with it: with traf2_human TRAF2, Q12933.
In the case of Q248E, the “effect of a mutation on the interaction” value is given as “with no effect”. Still for that read-out and setting: to I678V belongs “with no effect”; to H806D, “with no effect”.

In the next assay the parent is B2. The note with it: with RPGRIP1, Q96KN7-4.
Regarding R425K, the “effect of a mutation on the interaction” value is listed as “with no effect”.

As to H98Q, the “effect of a mutation on the interaction” value is reported as “disrupting interaction strength”.

Take T255I: the “effect of a mutation on the interaction” value is reported as “disrupting interaction strength”.

Regarding Q184H, the “effect of a mutation on the interaction” value is recorded as “with no effect”. On the same count and under the same terms, to G436D belongs “with no effect”.

In the next assay the parent is B3. The note with it: with syce1_human SYCE1, Q8N0S2.
Sequence of syce1_human SYCE1, Q8N0S2 (Q8N0S2 whole entry): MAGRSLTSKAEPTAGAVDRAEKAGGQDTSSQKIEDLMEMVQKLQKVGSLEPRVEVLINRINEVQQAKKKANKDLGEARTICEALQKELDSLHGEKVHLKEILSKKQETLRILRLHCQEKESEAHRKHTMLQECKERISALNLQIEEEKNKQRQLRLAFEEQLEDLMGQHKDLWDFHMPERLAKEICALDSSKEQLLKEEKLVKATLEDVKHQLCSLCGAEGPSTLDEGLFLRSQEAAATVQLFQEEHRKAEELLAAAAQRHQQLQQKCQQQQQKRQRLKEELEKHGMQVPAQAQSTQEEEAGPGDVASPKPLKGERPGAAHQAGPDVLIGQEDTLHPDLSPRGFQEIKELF
Take R60G: the “effect of a mutation on the interaction” value is given as “disrupting interaction strength”. Still for that read-out and setting: to R377L belongs “disrupting interaction strength”; to L162P, “disrupting interaction strength”.

In a further assay the parent is B4. The note with it: with hsp7c_human HSPA8, P11142.
Sequence of hsp7c_human HSPA8, P11142 (P11142 whole entry, looked up): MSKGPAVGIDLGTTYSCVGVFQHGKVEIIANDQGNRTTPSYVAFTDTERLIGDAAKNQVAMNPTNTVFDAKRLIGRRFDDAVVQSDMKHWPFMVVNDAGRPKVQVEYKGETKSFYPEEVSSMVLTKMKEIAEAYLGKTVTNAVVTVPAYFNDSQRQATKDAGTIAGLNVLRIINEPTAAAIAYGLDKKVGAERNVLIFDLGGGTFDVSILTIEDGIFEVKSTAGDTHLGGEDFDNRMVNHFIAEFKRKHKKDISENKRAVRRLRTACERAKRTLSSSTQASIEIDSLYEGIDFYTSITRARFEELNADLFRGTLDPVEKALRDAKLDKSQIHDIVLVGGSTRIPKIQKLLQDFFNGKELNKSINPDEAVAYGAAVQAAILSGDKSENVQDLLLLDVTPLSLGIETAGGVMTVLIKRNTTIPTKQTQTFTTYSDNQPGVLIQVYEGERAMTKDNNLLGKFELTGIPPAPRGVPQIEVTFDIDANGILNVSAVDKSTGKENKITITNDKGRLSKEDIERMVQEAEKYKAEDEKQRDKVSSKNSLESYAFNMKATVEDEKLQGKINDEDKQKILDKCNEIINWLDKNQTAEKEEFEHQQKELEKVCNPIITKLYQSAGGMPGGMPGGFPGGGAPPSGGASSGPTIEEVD
As to T53A, the “effect of a mutation on the interaction” value was “with no effect”.

In a further assay the parent is B5. The note with it: with SIAH1, Q8IUQ4-2.
In the case of S358L, the “effect of a mutation on the interaction” value is on record as “with no effect”.

Another assay covers variants of B6. The note with it: with traf2_human TRAF2, Q12933.
A394S: the “effect of a mutation on the interaction” value was “disrupting interaction strength”.

The values above are taken from IntAct's records for PubMed 25910212.
